Source: article PMC7561103, “Notch dimerization and gene dosage are important for normal heart development, intestinal stem cell maintenance, and splenic marginal zone B-cell homeostasis during mite infestation” (PLoS Biology, 2020)
Changes are numbered by the printed parent chain. Names may count otherwise. Values belong to the binder of their own block, whether it stands above or below them.

Tests used:
[1] = target: the molecule itself; assay: native gel or EMSA; 1xSPS probe; band intensities fitted to a 2-site binding model with cooperativity factor C (Kd,2nd = Kd,1st/C); RBPj 2.5 to 640 nM, N1ICD and MAML at 2 uM; association of two NTCs on DNA
mouse RBPj (aa 53–474) = target: T1, mouse RBPj (aa 53–474) (mouse, UniProt P31266 53-474); assay: native gel or EMSA; Notch transcription complexes assembled on fluorescent DNA probes with CSL sites (1.75 nM each probe); RBPj 2.5 to 640 nM in 4-fold steps, with or without N1ICD and MAML at 2 uM; native polyacrylamide gel; details: both partners purified
T1 construct: RBPj (CSL), mouse, residues 53-474; also called CSL
T1 sequence (P31266 53-474): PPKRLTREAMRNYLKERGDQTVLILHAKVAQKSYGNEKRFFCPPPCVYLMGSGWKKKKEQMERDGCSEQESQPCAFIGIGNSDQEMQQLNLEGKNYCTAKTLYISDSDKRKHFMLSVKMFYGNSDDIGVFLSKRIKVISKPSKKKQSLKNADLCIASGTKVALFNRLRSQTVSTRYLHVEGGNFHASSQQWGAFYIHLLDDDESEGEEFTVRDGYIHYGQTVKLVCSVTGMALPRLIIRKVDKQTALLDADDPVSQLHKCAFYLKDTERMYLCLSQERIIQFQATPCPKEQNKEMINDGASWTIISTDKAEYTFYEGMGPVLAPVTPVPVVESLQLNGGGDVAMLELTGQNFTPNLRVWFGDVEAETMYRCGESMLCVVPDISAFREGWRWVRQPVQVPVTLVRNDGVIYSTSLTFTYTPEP

binding result (mouse RBPj (aa 53–474)): binds
B1: mouse N1ICD (aa 1744–2113) (domain or fragment, UniProt Q01705 1744-2113, looked up)
chain: VLLSRKRRRQHGQLWFPEGFKVSEASKKKRREPLGEDSVGLKPLKNASDGALMDDNQNEWGDEDLETKKFRFEEPVVLPDLSDQTDHRQWTQQHLDAADLRMSAMAPTPPQGEVDADCMDVNVRGPDGFTPLMIASCSGGGLETGNSEEEEDAPAVISDFIYQGASLHNQTDRTGETALHLAARYSRSDAAKRLLEASADANIQDNMGRTPLHAAVSADAQGVFQILLRNRATDLDARMHDGTTPLILAARLAVEGMLEDLINSHADVNAVDDLGKSALHWAAAVNNVDAAVVLLKNGANKDMQNNKEETPLFLAAREGSYETAKVLLDHFANRDITDHMDRLPRDIAQERMHHDIVRLLDEYNLVRSPQ
notes: Notch1 intracellular domain (RAM-ANK), mouse, residues 1744-2113; also called N1 RAM-ANK domain; WT N1ICD
fold stronger binding of the NTC to the second site than to the first site (cooperativity on 1xSPS) [1]: 5 fold

binding result (mouse RBPj (aa 53–474)): binds
B2: mouse N1^RAICD (aa 1744–2113) (domain or fragment, UniProt Q01705 1744-2113, looked up)
chain: B1 chain with R231A
notes: Notch1 intracellular domain (RAM-ANK), mouse, residues 1744-2113, with Arg1974 in the ANK domain changed to alanine; also called RA mutant; N1^R1974A

binding result (mouse RBPj (aa 53–474)): binds
B3: human SMT3-MAML1 (aa 1–280) (domain or fragment, UniProt Q92585 1-280, looked up)
chain: MVLPTCPMAEFALPRHSAVMERLRRRIELCRRHHSTCEARYEAVSPERLELERQHTFALHQRCIQAKAKRAGKHRQPPAATAPAPAAPAPRLDAADGPEHGRPATHLHDTVKRNLDSATSPQNGDQQNGYGDLFPGHKKTRREAPLGVAISSNGLPPASPLGQSDKPSGADALQSSGKHSLGLDSLNKKRLADSSLHLNGGSNPSESFPLSLNKELKQEPVEDLPCMITGTVGSISQSNLMPDLNLNEQEWKELIEELNRSVPDEDMKDLFNEDFEEKKD
notes: Mastermind-like 1 (MAML1), human, residues 1-280; also called MAML protein; Mastermind-like
